These results are taken from patent USRE40850E1.

Where “and” joins values, the source holds several entries; their conditions need not be identical. Identical values can stand only once.

Experiment [1] has as its target PTH receptor present on the SaOS-2 (human osteosarcoma cells) (human (SaOS-2 human osteosarcoma cells)) (UniProt Q03431).
Experiment [2] shares this target. Description: displacement of mono-125I-[Nle8,18,Tyr34(3-125I)]bPTH(1-34)NH2 from SaOS-2 cells; Kd defined as half maximal inhibition.

The Kd is a measure of binding affinity in units of concentration. Lower therefore signals tighter binding. Take “[Cha^7,11,15]hPTH(1-34)NH2 (from UniProt P01270) (peptide)”: the EC50 (half maximal stimulation of adenylate cyclase, cAMP synthesis in SaOS-2 cells) in experiment [1] was 1.4 nM. For the same substance, the Kd in experiment [2] came to 10 nM.

With “[Dap^1, Nle^8,18, Tyr^34]hPTH(1-34)NH2 (from UniProt P01270) (peptide)”, in experiment [1], the EC50 (half maximal stimulation of adenylate cyclase, cAMP synthesis in SaOS-2 cells) is 10 nM. The Kd in experiment [2] stood at 150 nM.

“[Nle^31]hPTH(1-34)NH2 (from UniProt P01270) (peptide)” had an EC50 (half maximal stimulation of adenylate cyclase, cAMP synthesis in SaOS-2 cells) in experiment [1] of 0.7 nM. Besides, in experiment [2], the Kd was 4 nM.

Substance “[Cha^7,11, Aib^16]hPTH(1-34)NH2 (from UniProt P01270) (peptide)” registered an EC50 (half maximal stimulation of adenylate cyclase, cAMP synthesis in SaOS-2 cells) in experiment [1] of 1.1 nM. The substance further showed a Kd in experiment [2] of 4 nM.

Turning to “[Cha^7,11, Nle^8,18, Aib^16,19, Tyr^34]hPTH(1-34)NH2 (from UniProt P01270) (peptide)”, the EC50 (half maximal stimulation of adenylate cyclase, cAMP synthesis in SaOS-2 cells) in experiment [1] was 1.5 nM. In experiment [2], the Kd was determined as 5 nM.

In turn, “[Cha^7,11, Nle^8,18,31, Aib^34]hPTH(1-34)NH2 (from UniProt P01270) (peptide)” gave an EC50 (half maximal stimulation of adenylate cyclase, cAMP synthesis in SaOS-2 cells) in experiment [1] of 1.5 nM. The substance also came in with a Kd in experiment [2] of 30 nM.

On to “[Cha^11]hPTH(1-34)NH2 (from UniProt P01270) (peptide)”, for which the EC50 (half maximal stimulation of adenylate cyclase, cAMP synthesis in SaOS-2 cells) in experiment [1] was 2 nM. The substance also yielded a Kd in experiment [2] of 5 nM.

In experiment [1], “[Aib^34]hPTH(1-34)NH2 (from UniProt P01270) (peptide)” came in with an EC50 (half maximal stimulation of adenylate cyclase, cAMP synthesis in SaOS-2 cells) of 3 nM. The same substance registered a dissociation constant (Kd) in experiment [2] of 7 nM.

In experiment [1], “[Aib^3]hPTH(1-34)NH2 (from UniProt P01270) (peptide)” displayed an EC50 (half maximal stimulation of adenylate cyclase, cAMP synthesis in SaOS-2 cells) of 1.1 nM. Moreover, the Kd in experiment [2] came to 4 nM.

As for “[Cha^24,28,31, Lys^30]hPTH(1-34)NH2 (from UniProt P01270) (peptide)”, the EC50 (half maximal stimulation of adenylate cyclase, cAMP synthesis in SaOS-2 cells) in experiment [1] was 7 nM. Further, the Kd in experiment [2] worked out at 500 nM.

“[Cha^24,28,31]hPTH(1-34)NH2 (from UniProt P01270) (peptide)” registered an EC50 (half maximal stimulation of adenylate cyclase, cAMP synthesis in SaOS-2 cells) in experiment [1] of 30 nM. The same substance gave a Kd in experiment [2] of 1000 nM.

For the substance “[hArg^27]hPTH(1-34)NH2 (from UniProt P01270) (peptide)”, the EC50 (half maximal stimulation of adenylate cyclase, cAMP synthesis in SaOS-2 cells) in experiment [1] was 1 nM. Besides, in experiment [2], the Kd turned out to be 7 nM.

As to “[Cha^23]hPTH(1-34)NH2 (from UniProt P01270) (peptide)”, in experiment [1], the EC50 (half maximal stimulation of adenylate cyclase, cAMP synthesis in SaOS-2 cells) came out at 20 nM. In addition, in experiment [2], the dissociation constant (Kd) was 200 nM.

Regarding “[Aib^16,19]hPTH(1-34)NH2 (from UniProt P01270) (peptide)”, the EC50 (half maximal stimulation of adenylate cyclase, cAMP synthesis in SaOS-2 cells) in experiment [1] was 0.6 nM. Further, in experiment [2], the Kd was determined as 4 nM.

Regarding “[Aib^19]hPTH(1-34)NH2 (from UniProt P01270) (peptide)”, in experiment [1], the EC50 (half maximal stimulation of adenylate cyclase, cAMP synthesis in SaOS-2 cells) came out at 0.6 nM. For the same substance, in experiment [2], the Kd was 5 nM.

Substance “[Cha^7,11, Aib^19]hPTH(1-34)NH2 (from UniProt P01270) (peptide)” came in with an EC50 (half maximal stimulation of adenylate cyclase, cAMP synthesis in SaOS-2 cells) in experiment [1] of 0.5 nM. The Kd in experiment [2] was found to be 7 nM.

“[Cha^15]hPTH(1-34)NH2 (from UniProt P01270) (peptide)” showed an EC50 (half maximal stimulation of adenylate cyclase, cAMP synthesis in SaOS-2 cells) in experiment [1] of 1.3 nM. For the same substance, the Kd in experiment [2] amounted to 5 nM.

In experiment [1], “[Cha^7]hPTH(1-34)NH2 (from UniProt P01270) (peptide)” yielded an EC50 (half maximal stimulation of adenylate cyclase, cAMP synthesis in SaOS-2 cells) of 2.3 nM. In experiment [2], this substance registered a Kd of 20 nM.

As for “[Cha^24]hPTH(1-34)NH2 (from UniProt P01270) (peptide)”, the EC50 (half maximal stimulation of adenylate cyclase, cAMP synthesis in SaOS-2 cells) in experiment [1] was determined as 10 nM. Besides, in experiment [2], the Kd was determined as 100 nM.

Consider “[Cha^28,31]hPTH(1-34)NH2 (from UniProt P01270) (peptide)”, for which, in experiment [1], the EC50 (half maximal stimulation of adenylate cyclase, cAMP synthesis in SaOS-2 cells) was found to be 7 nM. Further, the Kd in experiment [2] stood at 60 nM.

Regarding “[Aib^17]hPTH(1-34)NH2 (from UniProt P01270) (peptide)”, the EC50 (half maximal stimulation of adenylate cyclase, cAMP synthesis in SaOS-2 cells) in experiment [1] was 2 nM and 3 nM. For the same substance, in experiment [2], the Kd was 5 nM and 50 nM.

On to “[Cha^28]hPTH(1-34)NH2 (from UniProt P01270) (peptide)”, for which the EC50 (half maximal stimulation of adenylate cyclase, cAMP synthesis in SaOS-2 cells) in experiment [1] stood at 2.5 nM. Also, the Kd in experiment [2] came out at 50 nM.

“[Aib^10]hPTH(1-34)NH2 (from UniProt P01270) (peptide)” came in with an EC50 (half maximal stimulation of adenylate cyclase, cAMP synthesis in SaOS-2 cells) in experiment [1] of 0.7 nM. The substance also showed a Kd in experiment [2] of 4 nM.

As to “[Cha^7,11]hPTH(1-34)NH2 (from UniProt P01270) (peptide)”, in experiment [1], the EC50 (half maximal stimulation of adenylate cyclase, cAMP synthesis in SaOS-2 cells) was 0.6 nM. In experiment [2], this substance showed a Kd of 10 nM.

With “[Nle^8,18, Cha^27]hPTH(1-34)NH2 (from UniProt P01270) (peptide)”, the EC50 (half maximal stimulation of adenylate cyclase, cAMP synthesis in SaOS-2 cells) in experiment [1] was found to be 2 nM. The substance also returned a Kd in experiment [2] of 50 nM.

The substance “[Cha^7,11, Nle^8,18, Tyr^34]hPTH(1-34)NH2 (from UniProt P01270) (peptide)” showed an EC50 (half maximal stimulation of adenylate cyclase, cAMP synthesis in SaOS-2 cells) in experiment [1] of 0.6 nM. The same substance displayed a Kd in experiment [2] of 6 nM.

Regarding “[Cha^7,11, Nle^8,18,31, Aib^16,19, Tyr^34]hPTH(1-34)NH2 (from UniProt P01270) (peptide)”, in experiment [1], the EC50 (half maximal stimulation of adenylate cyclase, cAMP synthesis in SaOS-2 cells) was found to be 4 nM. This substance also came in with a Kd in experiment [2] of 40 nM.

As to “[Cha^31]hPTH(1-34)NH2 (from UniProt P01270) (peptide)”, the EC50 (half maximal stimulation of adenylate cyclase, cAMP synthesis in SaOS-2 cells) in experiment [1] was 4 nM. In experiment [2], this substance registered a Kd of 30 nM.

“[Cha^7,11, Aib^19, Lys^30]hPTH(1-34)NH2 (from UniProt P01270) (peptide)” registered an EC50 (half maximal stimulation of adenylate cyclase, cAMP synthesis in SaOS-2 cells) in experiment [1] of 2 nM. The substance also showed a Kd in experiment [2] of 4 nM.
